Source: US20220033520A1 (published 2022)

Tests used:
[1] = biological target: T1, human FcRn complex (FCGRT and beta-2 microglobulin), recombinant, purified (human, UniProt P55899 24-297; P61769 21-119); assay: ?; pH 7.4
[2] = biological target: T1, human FcRn complex (FCGRT and beta-2 …); assay: -; pH7.4
[3] = biological target: T1, human FcRn complex (FCGRT and beta-2 …); assay: -; pH6
[4] = biological target: T1, human FcRn complex (FCGRT and beta-2 …); assay: -; pH6; remark: listed apart in the source
[5] = biological target: T1, human FcRn complex (FCGRT and beta-2 …); assay: ?; pH 6
[6] = biological target: T1, human FcRn complex (FCGRT and beta-2 …); assay: ?; pH 7.4; remark: listed apart in the source
[7] = biological target: T1, human FcRn complex (FCGRT and beta-2 …); assay: ?; pH 6; remark: listed apart in the source
[8] = biological target: T1, human FcRn complex (FCGRT and beta-2 …); assay: -; pH6; remark: listed apart in the source
[9] = biological target: T1, human FcRn complex (FCGRT and beta-2 …); assay: -; pH7.4; remark: listed apart in the source
[10] = biological target: T1, human FcRn complex (FCGRT and beta-2 …); assay: -; pH7.4; remark: listed apart in the source
[11] = biological target: T1, human FcRn complex (FCGRT and beta-2 …); assay: -; pH7.4; remark: listed apart in the source
[12] = biological target: T1, human FcRn complex (FCGRT and beta-2 …); assay: ?; pH 7.4; remark: listed apart in the source
[13] = biological target: T1, human FcRn complex (FCGRT and beta-2 …); assay: -; pH6; remark: listed apart in the source
[14] = biological target: T1, human FcRn complex (FCGRT and beta-2 …); assay: ?; pH 6; remark: listed apart in the source

T1 sequence (P55899 24-297, chain 1 of 2): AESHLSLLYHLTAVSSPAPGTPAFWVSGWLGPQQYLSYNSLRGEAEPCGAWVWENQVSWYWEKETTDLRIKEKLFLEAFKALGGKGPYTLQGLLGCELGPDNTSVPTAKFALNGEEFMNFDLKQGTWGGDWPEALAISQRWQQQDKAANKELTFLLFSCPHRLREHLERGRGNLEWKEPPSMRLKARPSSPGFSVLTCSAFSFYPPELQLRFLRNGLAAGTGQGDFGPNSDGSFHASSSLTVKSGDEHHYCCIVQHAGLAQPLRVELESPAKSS
T1 sequence (P61769 21-119, chain 2 of 2): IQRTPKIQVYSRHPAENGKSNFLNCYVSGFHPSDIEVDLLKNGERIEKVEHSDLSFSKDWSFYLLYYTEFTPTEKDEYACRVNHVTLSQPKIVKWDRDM

B1: anti-gD antibody comprising a hIgG1 with a YQAY (Q95, M252Y/T307Q/Q311A/N434Y) Fc modification (anti-gD-hIgG1-YQAY) (antibody)
Fc: PAPELLGGPSVFLFPPKPKDTLYISRTPEVTCVVVDVSHEDPEVKFNWYVDGVEVHNAKTKPREEQYNSTYRVVSVLQVLHADWLNGKEYKCKVSNKALPAPIEKTISKAKGQPREPQVYTLPPSRDELTKNQVSLTCLVKGFYPSDIAVEWESNGQPENNYKTTPPVLDSDGSFFLYSKLTVDKSRWQQGNVFSCSVMHEALHYHYTQKSLSLSPGK
Kd [1]: 0.333 µM | Kd [2]: 0.333 µM | Kd [3]: 0.002 µM | Kd [4]: 0.002 µM | Kd [5]: 0.002 µM | Kd [6]: 0.333 µM | Kd [7]: 0.002 µM | Kd [8]: 0.002 µM | Kd [9]: 0.333 µM | Kd [10]: 0.333 µM

B2: anti-BACE1 hIgG1 antibody, Fc modification Q95 (M252Y/T307Q/Q311A/N434Y) (antibody)
Fc: PAPELLGGPSVFLFPPKPKDTLYISRTPEVTCVVVDVSHEDPEVKFNWYVDGVEVHNAKTKPREEQYNSTYRVVSVLQVLHADWLNGKEYKCKVSNKALPAPIEKTISKAKGQPREPQVYTLPPSRDELTKNQVSLTCLVKGFYPSDIAVEWESNGQPENNYKTTPPVLDSDGSFFLYSKLTVDKSRWQQGNVFSCSVMHEALHYHYTQKSLSLSPGK
Kd [11]: 0.333 µM | Kd [12]: 0.333 µM | Kd [13]: 0.002 µM | Kd [14]: 0.00198 µM
